Assay [1] deals with T1, biotinylated hSEMA4D ECD-His (human) (UniProt Q92854).
T1 sequence (chain, biotinylated with Biotin-X-X-NHS at a molar ratio of 8,1; sites not stated): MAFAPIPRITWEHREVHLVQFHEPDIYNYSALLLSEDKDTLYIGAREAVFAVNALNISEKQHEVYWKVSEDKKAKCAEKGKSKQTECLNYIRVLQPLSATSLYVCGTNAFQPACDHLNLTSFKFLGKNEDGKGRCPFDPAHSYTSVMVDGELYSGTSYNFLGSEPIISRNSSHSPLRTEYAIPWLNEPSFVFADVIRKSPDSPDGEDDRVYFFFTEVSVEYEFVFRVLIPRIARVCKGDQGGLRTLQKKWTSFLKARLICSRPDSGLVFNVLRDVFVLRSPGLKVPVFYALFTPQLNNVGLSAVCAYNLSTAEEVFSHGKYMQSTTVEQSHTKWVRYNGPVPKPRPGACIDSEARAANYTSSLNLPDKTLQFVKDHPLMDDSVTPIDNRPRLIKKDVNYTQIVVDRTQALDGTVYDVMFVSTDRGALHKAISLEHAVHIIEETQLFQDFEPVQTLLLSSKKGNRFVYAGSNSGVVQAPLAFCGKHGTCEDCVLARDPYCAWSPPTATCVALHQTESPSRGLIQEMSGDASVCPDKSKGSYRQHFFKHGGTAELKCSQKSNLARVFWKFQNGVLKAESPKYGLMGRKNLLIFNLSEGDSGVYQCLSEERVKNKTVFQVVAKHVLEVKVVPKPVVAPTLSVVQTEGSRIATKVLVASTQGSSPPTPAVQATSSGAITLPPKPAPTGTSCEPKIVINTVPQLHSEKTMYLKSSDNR
Nature of the assay: FACS, blocking of biotinylated hSEMA4D ECD-His binding to 293F hPlexin B1 cells; Ab 2.67 nM.

Assay [2] addresses T2, human SEMA4D, full length, on CHO-K1 cells (CHO-K1 hSEMA4D) (human) (UniProt Q92854).
T2 sequence (looked up): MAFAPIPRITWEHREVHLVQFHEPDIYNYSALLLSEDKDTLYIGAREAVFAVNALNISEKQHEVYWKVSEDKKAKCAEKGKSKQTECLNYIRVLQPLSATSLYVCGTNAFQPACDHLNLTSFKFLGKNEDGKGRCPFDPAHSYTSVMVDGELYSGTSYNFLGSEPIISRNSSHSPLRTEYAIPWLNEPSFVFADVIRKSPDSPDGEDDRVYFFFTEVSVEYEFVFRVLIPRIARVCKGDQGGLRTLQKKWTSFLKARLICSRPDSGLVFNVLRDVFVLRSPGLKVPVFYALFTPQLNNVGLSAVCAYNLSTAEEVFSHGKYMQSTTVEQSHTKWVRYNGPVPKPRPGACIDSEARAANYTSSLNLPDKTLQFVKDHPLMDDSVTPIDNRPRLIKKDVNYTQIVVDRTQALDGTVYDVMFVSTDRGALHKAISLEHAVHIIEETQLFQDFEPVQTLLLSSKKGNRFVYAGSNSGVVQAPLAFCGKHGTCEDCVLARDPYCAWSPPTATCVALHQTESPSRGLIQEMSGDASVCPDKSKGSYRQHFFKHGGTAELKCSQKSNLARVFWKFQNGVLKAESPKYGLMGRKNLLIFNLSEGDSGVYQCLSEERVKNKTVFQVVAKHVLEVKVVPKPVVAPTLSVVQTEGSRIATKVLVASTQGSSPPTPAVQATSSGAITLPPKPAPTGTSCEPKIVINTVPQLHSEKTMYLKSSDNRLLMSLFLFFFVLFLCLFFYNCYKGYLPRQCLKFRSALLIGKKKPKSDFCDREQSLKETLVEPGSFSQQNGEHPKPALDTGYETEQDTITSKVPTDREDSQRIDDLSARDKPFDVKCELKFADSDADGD
Kind of assay: FACS, CHO-K1 hSEMA4D cells; Ab 0.000853 nM. For orientation: In flow cytometry, cells or beads pass a laser one at a time.

In assay [3] the target is mouse SEMA4D, full length, on CHO-K1 cells (CHO-K1 mSEMA4D) (mouse) (UniProt O09126). Kind of assay: FACS, CHO-K1 mSEMA4D cells; Ab 0.0213 nM.
Assay [4] deals with T2, human SEMA4D, full length, on CHO-K1 cells (CHO-K1 hSEMA4D) (human). Nature of the assay: FACS, CHO-K1 hSEMA4D cells; Ab 0.00427 nM.
The target in assay [5] is mouse SEMA4D, full length, on CHO-K1 cells (CHO-K1 mSEMA4D) (mouse) (UniProt O09126). Nature of the assay: FACS, CHO-K1 mSEMA4D cells; Ab 13.3 nM.
Assay [6] addresses T1, biotinylated hSEMA4D ECD-His (human). Nature of the assay: FACS, blocking of biotinylated hSEMA4D ECD-His binding to 293F hPlexin B1 cells; Ab 333 nM.
In assay [7] the target is monkey SEMA4D, full length, on CHO-K1 cells (CHO-K1 cSEMA4D) (monkey). Kind of assay: FACS, CHO-K1 cSEMA4D cells; Ab 0.00427 nM.
The target of assay [8] is mouse SEMA4D, full length, on CHO-K1 cells (CHO-K1 mSEMA4D) (mouse) (UniProt O09126). Nature of the assay: FACS, CHO-K1 mSEMA4D cells; Ab 0.000853 nM.
The target in assay [9] is monkey SEMA4D, full length, on CHO-K1 cells (CHO-K1 cSEMA4D) (monkey). Nature of the assay: FACS, CHO-K1 cSEMA4D cells; Ab 0.534 nM.
Assay [10] shares this target. Nature of the assay: FACS, CHO-K1 cSEMA4D cells; Ab 0.107 nM.
The target in assay [11] is T2, human SEMA4D, full length, on CHO-K1 cells (CHO-K1 hSEMA4D) (human). Nature of the assay: FACS, CHO-K1 hSEMA4D cells; Ab 13.3 nM.
For assay [12], the target named is mouse SEMA4D, full length, on CHO-K1 cells (CHO-K1 mSEMA4D) (mouse) (UniProt O09126). Nature of the assay: FACS, CHO-K1 mSEMA4D cells; Ab 2.67 nM.
Assay [13] concerns the target T1, biotinylated hSEMA4D ECD-His (human). Kind of assay: FACS, blocking of biotinylated hSEMA4D ECD-His binding to 293F hPlexin B1 cells; Ab 0.107 nM.
For assay [14] the target is unchanged. Kind of assay: FACS, blocking of biotinylated hSEMA4D ECD-His binding to 293F hPlexin B1 cells; Ab 13.3 nM.
The target of assay [15] is hSEMA4D ECD-His (His-tagged human SEMA4D protein extracellular domain, Met22-Arg734) (human) (UniProt Q92854). Nature of the assay: ELISA, coated hSEMA4D ECD-His; Ab 0.00213 nM.

From patent US20220073608A1 come the findings set out here.

Consider Human IgG control (antibody), for which the MFI (residual ligand binding) in assay [1] came to 338; in assay [6], 307; in assay [13] it was 364; in assay [14], 331. The MFI in assay [2] is 37.2; in [3] it was 24.1; in [4] it was 37.4; in assay [5], 23.8; in assay [7] it was 31.6; in assay [8] it was 25. Further, the MFI was 32.1 in assay [9], 31.6 in assay [10], 35.8 in [11] and 23.9 in assay [12].

As for Mouse IgG control (antibody), the MFI (residual ligand binding) in assay [1] was found to be 470; in assay [6], 464; in assay [13], 473; in assay [14], 474. In addition, the MFI in assay [2] came out at 35.5; in assay [3] it was 30.5; in assay [4], 35.5; in assay [5], 30.3; in assay [7], 22.5; in assay [8] it was 29.8. For the same substance, the MFI in [9] was 24.9; in [10] it was 25.4; in assay [11], 40.2; in assay [12], 30.4. Further, the OD450 nm in assay [15] stood at 0.0718.
